Assay results as given in doi:10.1101/2020.06.18.159822.
Where two headings read alike, the source gives them in different places.

Columns and labels:
[1] = biological target: HIV-1 BH10 GagΔp6 (HIV-1 BH10); assay: native MS
[2] = biological target: HIV-1 BH10 GagΔp6 (HIV-1 BH10); assay: native MS; remark: listed apart in the source
[3] = biological target: WT HIV-1 BH10 Gag (HIV-1 BH10); assay: native MS
[4] = biological target: WT HIV-1 BH10 Gag (HIV-1 BH10); assay: native MS; remark: listed apart in the source
WT Gag [5] = biological target: T1, WT Gag (HIV-1 BH10, UniProt P03347 1-512); assay: fluorescence anisotropy salt titration
WT Gag [6] = biological target: T1, WT Gag; assay: native MS

HIV-1 BH10 GagΔp6 (domain or fragment)
stoichiometry N [1]: 2
stoichiometry N [2]: 2

WT HIV-1 BH10 Gag (natural protein)
stoichiometry N [3]: 2
stoichiometry N [4]: 2

B1: Psi RNA-FTSC (structured_RNA)
RNA: GGUCUCUCGACGCAGGACUCGGCUUGCUGGAGACGGCAAGAGGCGAGGGGCGGCGACUGGUGAGUACGCCAAAAAUUUUGACUAGCGGAGGCUAGAAGGAGAGA
Kd (WT Gag [5]): 77 µM

B2: TARpolyA RNA (structured_RNA)
RNA: GGGUCUCUCUGGUUAGACCAGAUCUGAGCCUGGGAGCUCUCUGGCUAACUAGGGAACCCACUGCUUAAGCCUCAAUAAAGCUUGCCUUGAGUGCUCAAAGUAGUG
binding result (WT Gag [6]): binds
